From patent US20100330106A1 (Regeneron, published 2010)

Target: human DII4 (delta-like ligand 4) (human, UniProt Q9NR61 27-524, limits assumed)
Experiment: cell-based or functional assay

Sequence of human DII4 (delta-like ligand 4) (Q9NR61 27-524 limits assumed, stated change not applied): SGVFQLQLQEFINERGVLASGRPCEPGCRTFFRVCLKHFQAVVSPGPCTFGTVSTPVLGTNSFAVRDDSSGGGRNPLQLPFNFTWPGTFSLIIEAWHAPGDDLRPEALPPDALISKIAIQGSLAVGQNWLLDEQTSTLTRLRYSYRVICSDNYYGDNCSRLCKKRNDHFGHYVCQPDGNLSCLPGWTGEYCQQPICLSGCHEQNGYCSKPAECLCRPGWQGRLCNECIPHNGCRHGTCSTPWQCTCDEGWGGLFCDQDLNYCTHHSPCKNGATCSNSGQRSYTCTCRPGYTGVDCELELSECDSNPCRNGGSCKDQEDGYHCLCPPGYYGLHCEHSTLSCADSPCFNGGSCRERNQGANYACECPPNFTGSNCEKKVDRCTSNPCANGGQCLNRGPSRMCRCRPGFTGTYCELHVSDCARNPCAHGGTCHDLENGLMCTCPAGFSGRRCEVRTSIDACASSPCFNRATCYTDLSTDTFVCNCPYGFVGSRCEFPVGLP

Hey-1 transcript, Post-treatment vs. Pre-treatment ratio (microarray, patient 1, dose 0.25 mg/kg, 24 hours after REGN421 administration): 0.52 ratio
Hey-1 transcript, Post-treatment vs. Pre-treatment ratio (microarray, patient 2, dose 0.25 mg/kg, 24 hours after REGN421 administration): 0.85 ratio
Hey-1 transcript, Post-treatment vs. Pre-treatment ratio (microarray, patient 3, dose 0.25 mg/kg, 24 hours after REGN421 administration): 0.77 ratio
Hey-1 transcript, Post-treatment vs. Pre-treatment ratio (microarray, patient 4, dose 0.25 mg/kg, 24 hours after REGN421 administration): 0.51 ratio
Hey-1 transcript, Post-treatment vs. Pre-treatment ratio (microarray, patient 5, dose 0.25 mg/kg, 24 hours after REGN421 administration): 0.61 ratio
Hey-1 transcript, Post-treatment vs. Pre-treatment ratio (microarray, patient 6, dose 0.25 mg/kg, 24 hours after REGN421 administration): 0.55 ratio
Hey-1 transcript, Post-treatment vs. Pre-treatment ratio (microarray, patient 7, dose 0.25 mg/kg, 24 hours after REGN421 administration): 0.75 ratio
Hey-1 transcript, Post-treatment vs. Pre-treatment ratio (microarray, patient 8, dose 0.5 mg/kg, 24 hours after REGN421 administration): 0.68 ratio
Hey-1 transcript, Post-treatment vs. Pre-treatment ratio (microarray, patient 9, dose 0.5 mg/kg, 24 hours after REGN421 administration): 0.82 ratio
B1: REGN421 (antibody, V domains shown)
VH: QVQLVESGGGVVQPGRSLRLSCAASGFTFSSYGMHWVRQAPGKGLEWVSFLWYDGTNKNYVESVKGRFTISRDNSKNMLYLEMNSLRAEDTAVYYCARDHDFRSGYEGWFDPWGQGTLVTVSS
VL: EIVLTQSPATLSLSPGERATLSCRASQSVSSYLAWYQQKPGQAPRLLIYDASNRATGIPARFSGSGSGTDFTLTISSLEPEDFAVYYCQHRSNWPPTFGGGTKVEIK
